Biological target: type II receptors on the cell surface of INA6 cells (human (endogenous in INA6))

Row | concentration for 50% rescue (IC50) from inhibition of INA6 cell proliferation induced by 10 nM Activin A, WST-1; competes with Activin A for the type II receptors [nM] | Molecule
1 | 62.5 | BMP2-L51PL100KN102D (ligand)
2 | 250 | Recombinant human BMP2 (wildtype) (ligand) QAKHKQRKRLKSSCKRHPLYVDFSDVGWNDWIVAPPGYHAFYCHGECPFPLADHLNSTNHAIVQTLVNSVNSKIPKACCVPTELSAISMLYLDENEKVVLKNYQDMVVEGCGCR
